We go through 13 substances from the supplement of paper PMC5998384.

This data set concerns HeLa Kyoto. The experiment in a line: melting temperature (median over replicates), in situ; higher = more thermally stable.
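Also: HeLa Kyoto cells synchronized by double thymidine or nocodazole block, proteins quantified by TMT10plex mass spectrometry, three independent biological replicates.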

Sequence of DESI2 (chain, as listed by the source): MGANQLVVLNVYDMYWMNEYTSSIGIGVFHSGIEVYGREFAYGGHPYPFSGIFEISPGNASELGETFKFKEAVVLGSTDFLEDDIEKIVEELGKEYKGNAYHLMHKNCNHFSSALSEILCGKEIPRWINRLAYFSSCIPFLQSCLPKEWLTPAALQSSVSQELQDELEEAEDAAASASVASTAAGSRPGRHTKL
Sequence of MGST2 (chain, as listed by the source): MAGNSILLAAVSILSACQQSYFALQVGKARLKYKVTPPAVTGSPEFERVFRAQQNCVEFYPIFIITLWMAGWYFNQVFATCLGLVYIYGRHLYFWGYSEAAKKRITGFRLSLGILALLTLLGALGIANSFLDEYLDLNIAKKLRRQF

With “MSSHKGSVVAQGNGAPASNREADTVELAELGPLLEEKGKRVIANPPKAEEEQTCPVPQEEEEEVRVLTLPLQAHHAMEKMEEFVYKVWEGRWRVIPYDVLPDWLKDNDYLLHGHRPPMPSFRACFKSIFRIHTETGNIWTHLLGFVLFLFLGILTMLRPNMYFMAPLQEKVVFGMFFLGAVLCLSFSWLFHTVYCHSEKVSRTFSKLDYSGIALLIMGSFVPWLYYSFYCSPQPRLIYLSIVCVLGISAIIVAQWDRFATPKHRQTRAGVFLGLGLSGVVPTMHFTIAEGFVKATTVGQMGWFFLMAVMYITGAGLYAARIPERFFPGKFDIWFQSHQIFHVLVVAAAFVHFYGVSNLQEFRYGLEGGCTDDTLL [ADIPOR1]”, the melting temperature (cell cycle stage: G1/S) was found to be 55.6 °C.

For the substance “MATQAKRPRVAGPVDGGDLDPVACFLSWCRRVGLELSPKVSERAGGRRTRGGARAALTSPPAQVAVSRQGTVAGYGMVARESVQAGELLFVVPRAALLSQHTCSIGGLLERERVALQSQSGWVPLLLALLHELQAPASRWRPYFALWPELGRLEHPMFWPEEERRCLLQGTGVPEAVEKDLANIRSEYQSIVLPFMEAHPDLFSLRVRSLELYHQLVALVMAYSFQEPLEEEEDEKEPNSPVMVPAADILNHLANHNANLEYSANCLRMVATQPIPKGHEIFNTYGQMANWQLIHMYGFVEPYPDNTDDTADIQMVTVREAALQGTKTEAERHLVYERWDFLCKLEMVGEEGAFVIGREEVLTEEELTTTLKVLCMPAEEFRELKDQDGGGDDKREEGSLTITNIPKLKASWRQLLQNSVLLTLQTYATDLKTDQGLLSNKEVYAKLSWREQQALQVRYGQKMILHQLLELTS [SETD6]”, the melting temperature (cell cycle stage: mitosis) stood at 50.4 °C. The substance RAPGEF6 registered a melting temperature (cell cycle stage: G1/S) of 47.3 °C and a melting temperature (cell cycle stage: mitosis) of 48.9 °C. In the same order, the values of “MAEAEESPGDPGTASPRPLFAGLSDISISQDIPVEGEITIPMRSRIREFDSSTLNESVRNTIMRDLKAVGKKFMHVLYPRKSNTLLRDWDLWGPLILCVTLALMLQRDSADSEKDGGPQFAEVFVIVWFGAVTITLNSKLLGGNISFFQSLCVLGYCILPLTVAMLICRLVLLADPGPVNFMVRLFVVIVMFAWSIVASTAFLADSQPPNRRALAVYPVFLFYFVISWMILTFTPQ [YIPF6]” are 55 °C and 54.6 °C. For the substance MGST2, the melting temperature (cell cycle stage: G1/S) turned out to be 54.3 °C. “MSLRCGDAARTLGPRVFGRYFCSPVRPLSSLPDKKKELLQNGPDLQDFVSGDLADRSTWDEYKGNLKRQKGERLRLPPWLKTEIPMGKNYNKLKNTLRNLNLHTVCEEARCPNIGECWGGGEYATATATIMLMGDTCTRGCRFCSVKTARNPPPLDASEPYNTAKAIAEWGLDYVVLTSVDRDDMPDGGAEHIAKTVSYLKERNPKILVECLTPDFRGDLKAIEKVALSGLDVYAHNVETVPELQSKVRDPRANFDQSLRVLKHAKKVQPDVISKTSIMLGLGENDEQVYATMKALREADVDCLTLGQYMQPTRRHLKVEEYITPEKFKYWEKVGNELGFHYTASGPLVRSSYKAGEFFLKNLVAKRKTKDL [LIAS]” had a melting temperature (cell cycle stage: G1/S) of 52.1 °C and a melting temperature (cell cycle stage: mitosis) of 53.4 °C. In the case of “MLLSIGMLMLSATQVYTILTVQLFAFLNLLPVEADILAYNFENASQTFDDLPARFGYRLPAEGLKGFLINSKPENACEPIVPPPVKDNSSGTFIVLIRRLDCNFDIKVLNAQRAGYKAAIVHNVDSDDLISMGSNDIEVLKKIDIPSVFIGESSANSLKDEFTYEKGGHLILVPEFSLPLEYYLIPFLIIVGICLILIVIFMITKFVQDRHRARRNRLRKDQLKKLPVHKFKKGDEYDVCAICLDEYEDGDKLRILPCSHAYHCKCVDPWLTKTKKTCPVCKQKVVPSQGDSDSDTDSSQEENEVTEHTPLLRPLASVSAQSFGALSESRSHQNMTESSDYEEDDNEDTDSSDAENEINEHDVVVQLQPNGERDYNIANTV [RNF13]”, the melting temperature (cell cycle stage: G1/S) was 57.4 °C and the melting temperature (cell cycle stage: mitosis) was found to be 64.3 °C. Take “MWTLGRRAVAGLLASPSPAQAQTLTRVPRPAELAPLCGRRGLRTDIDATCTPRRASSNQRGLNQIWNVKKQSVYLMNLRKSGTLGHPGSLDETTYERLAEETLDSLAEFFEDLADKPYTFEDYDVSFGSGVLTVKLGGDLGTYVINKQTPNKQIWLSSPSSGPKRYDWTGKNWVYSHDGVSLHELLAAELTKALKTKLDLSSLAYSGKDA [FXN]”: the melting temperature is, setting by setting: (cell cycle stage: G1/S) 53 °C; (cell cycle stage: mitosis) 53.3 °C. In the case of “MSLPPEKASELKQLIHQQLSKMDVHGRIREILAETIREELAPDQQHLSTEDLIKALRRRGIIDDVMKELNFVTDSVEQELPSSPKQPICFDRQSTLKKTNIDPTRRYLYLQVLGGKAFLEHLQEPEPLPGQVCSTFTLCLHYRNQRFRSKPVPCACEPDFHDGFLLEVHRESLGDGTRMADSTTMLSISDPIHMVLIKTDIFGETTLVASYFLEWRSVLGSENGVTSLTVELMGVGTESKVSVGILNIKLEMYPPLNQTLSQEVVNTQLALERQKTAEKERLFLVYAKQWWREYLQIRPSHNSRLVKIFAQDENGINRPVCSYVKPLRAGRLLDTPRQAARFVNVLGYERAPVIGGGGKQEQWCTLLAFLCRNKGDCEDHANLLCSLLLGYGLEAFVCVGTKAKGVPHAWVMTCGTDGAITFWESLTGHRYIHKPTNPDEPPVAEQPKPLYPYRTIGCVFNHQMFLGNCQPSDAVETCVFDLNDESKWKPMSEEAIKSVCAPGATTSLPPFPPLCASTIDASVTSNEIEMQLRLLVSEHRKDLGLTTVWEDQLSYLLSPALASYEFERTTSISAGNEEFQDAIRRAVPDGHTFKGFPIHFVYRNARRAFATCLRSPFCEEIICCRGDQVRLAVRVRVFTYPESACAVWIMFACKYRSVL [CEP76]”, the melting temperature (cell cycle stage: G1/S) came to 53.7 °C.

Regarding “MEADGDGEELARLRSVFAACDANRSGRLEREEFRALCTELRVRPADAEAVFQRLDADRDGAITFQEFARGFLGSLRGGRRRDWGPLDPAPAVSEAGPETHDSEEDEGDEDAAAALATSCGPASPGRAWQDFQARLGDEAKFIPREEQVSTLYQNINLVEPRLIQPYEHVIKNFIREIRLQSTEMENLAIAVKRAQDKAAMQLSELEEEMDQRIQAAEHKTRKDEKRKAEEALSDLRRQYETEVGDLQVTIKKLRKLEEQSKRVSQKEDVAALKKQIYDLSMENQKVKKDLLEAQTNIAFLQSELDALKSDYADQSLNTERDLEIIRAYTEDRNSLERQIEILQTANRKLHDSNDGLRSALENSYSKFNRSLHINNISPGNTISRSSPKFIGHSPQPLGYDRSSRSSYVDEDCDSLALCDPLQRTNCEVDSLPESCFDSGLSTLRDPNEYDSEVEYKHQRGFQRSHGVQESFGGDASDTDVPDIRDEETFGLEDVASVLDWKPQGSVSEGSIVSSSRKPISALSPQTDLVDDNAKSFSSQKAYKIVLAGDAAVGKSSFLMRLCKNEFRENISATLGVDFQMKTLIVDGERTVLQLWDTAGQERFRSIAKSYFRKADGVLLLYDVTCEKSFLNIREWVDMIEDAAHETVPIMLVGNKADIRDTAATEGQKCVPGHFGEKLAMTYGALFCETSAKDGSNIVEAVLHLAREVKKRTDKDDSRSITNLTGTNSKKSPQMKNCCNG [RASEF]”, the melting temperature turned out to be 49.8 °C (cell cycle stage: G1/S) and 50 °C (cell cycle stage: mitosis). Substance “MRSGEELDGFEGEASSTSMISGASSPYQPTTEPVSQRRGLAGLRCDPDYLRGALGRLKVAQVILALIAFICIETIMACSPCEGLYFFEFVSCSAFVVTGVLLIMFSLNLHMRIPQINWNLTDLVNTGLSAFLFFIASIVLAALNHRAGAEIAAVIFGFLATAAYAVNTFLAVQKWRVSVRQQSTNDYIRARTESRDVDSRPEIQRLDTFSYSTNVTVRKKSPTNLLSLNHWQLA [CMTM4]” came in with a melting temperature (cell cycle stage: G1/S) of 58.1 °C. On the same count and under the same terms, next, DESI2: 53.8 °C. Turning to “MAQEVDTAQGAEMRRGAGAARGRASWCWALALLWLAVVPGWSRVSGIPSRRHWPVPYKRFDFRPKPDPYCQAKYTFCPTGSPIPVMEGDDDIEVFRLQAPVWEFKYGDLLGHLKIMHDAIGFRSTLTGKNYTMEWYELFQLGNCTFPHLRPEMDAPFWCNQGAACFFEGIDDVHWKENGTLVQVATISGNMFNQMAKWVKQDNETGIYYETWNVKASPEKGAETWFDSYDCSKFVLRTFNKLAEFGAEFKNIETNYTRIFLYSGEPTYLGNETSVFGPTGNKTLGLAIKRFYYPFKPHLPTKEFLLSLLQIFDAVIVHKQFYLFYNFEYWFLPMKFPFIKITYEEIPLPIRNKTLSGL [CLN5]”, under “cell cycle stage: mitosis”, the melting temperature came out at 53.8 °C.
